Laboratory results published in a protein production outcome set (Wang et al. 2014).

Assay: label from the status in PepcDB records
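Also: failed if final PepcDB status was selected cloned or expressed and not failed if soluble or beyond.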

Sequence	protein production
MGGDARRALFVPAPSPTLHRMLPDALRDTLEERLDATIESVASVRGGCIANACRLETDAAPFFLKHGPDEVARTFPGEAAGLEALGAADSPLVVPSVHDTAPATDDRPGFLVMEWVNPGREGRRFWDRFGEGLAALHRHTADAYGFGQDNFIGRLPQSNAWTDDWPTFFREQRLAPQVDMARERGRWRDGWGTALTTLYRRLPDILPRSPEPSVLHGDLWKGNYLVTAVGDPALVDPATYYGHREADLAMTELFGGYDDRFYDAYRSAWGLAPEYGTRRDVYNLYHLINHLNLFGGGYAAQVEDTLRPFK	failed
MFSAKKLSPADKLKNISSMLEEIVEDTTVPRNIRAAADNAKNALHNEEQELIVRSATAIQYLDDISEDPNMPIHTRTQIWGIVSELETIKN	not failed
MHIIQRNPSTNLPEGPYSATSAVKDPSHLPMGHHICFSVPNFDSFLHSLKEKGIETFQKSLPDGKVKQVFFFDPDGNGLEVASRS	failed
MSYQTWWSRVQVVDPEQLLDAVEEWDRPLVALTTPGTLARGLSLQVFRRIAPDEKNLLIIPHFCISGTIEKRLLEEGCCDENKITNENESIRIRCKTMNLHFGFHADTRDLLLFFSQWKPSCIVLVHGEGEKMDYLARVVQEEWGIQCWVPKEEQWITWKPNLTKSQ	failed
MIGLNTAAIYVLQTLGSLYLLIILLRFVLQLVRANFYNPLCQFIVRATQPLLKPLRRIIPSLFGLDMSSLVLAIIVQMILMALTLLLMFGTTGDPLHLLLWSIIGVTALFLKIFFFALIISVILSWVAPGSHNPGAELVNQICEPALAPFRKIVPNLGGLDISPILAFLVLKLLDMLVINNLAAMSNMPDVLRLLM	failed
MSKKGFFEYKLSKEIVRALTGLGYDHPTEVQGEVIPVALQKKDLVVKSQTGSGKTASFGIPLCEMVEWEENKPQALVLTPTRELAVQVKEDITNIGRFKRIKAAAIYGKSPFARQKLELKQKTHIVVGTPGRVLDHIEKGTLSLERLKYLVIDEADEMLNMGFIDQVEAIIDELPTNRMTMLFSATLPEDVERLSRTYMNAPTHIEIKAAGITTDKIEHTLFEAIEDEKFSLLKDVTTIENPDSCIIFCRTQENVDHVYRQLKRANYPCDKIHGGMVQEDRFEVMDDFRKGKFRYLVATDVAARGIDIDNITHVINYDIPLEKESYVHRTGRTGRAGNSGKAITFITPYENRFLEEIEEYIGFEIPKAIGPSKEEVMKGKAAFEEKIHAKPIIKKDKNADINKGIMKLYFNGGKKKKIRAVDFVGTIAKIKGVTAEDIGIITIQDNVSYVEILNGKGPLVLKVMKTTTIKGKQLKVHEAIK	failed
MVNVDGKREEDEEVIEVEGMGANKSARMLERLHVVHQYVARWVYSHGIPFNAIANDDLRRMLEVAGQFGPGVTPPSQYQLREPLLKEEVVRMKGLMEEQEDEWRVNGCSVTTDSWSDRKRRSIMNLCINCKEGTMFLSSKDCFDDSHTGEYIFAYVNEYCIKNLGGDHVVQVVTNNATNNITAAKLLKEVRPTIFWTFCATHTINLMVEGISKLAMSDEIVKMAKAFTIFIYAHHQTLSMMRSFTKRRDIVRPGIIGFASAFRTLKSLVEKEENLKVKRKKKKKLSKATTMVVL	failed
MIHAVAPCCPHAPRTTWEFHLRLLPLATALTLAVAMGVTPAQENRLPDIGSSAGELLTPARQAEYGKMMLAELRNYDYVLDDPLITDWLQTMGTRLGANSDQPQQPFTFFMLRDRQINAFATLGGYVAVNAGLVLTAEREDEVAAVLSHEIAHVTQQHVLRAVERAQRDQIPILLGMLAAVVAAQQAGGNSKGDATMATITSAMGLMQQRQIDYTRSNESEADRLGIRTLARSGYDVDAMAGFFERMSVAMRANEGGYSAPDFLQTHPVTVTRISEAKARAEQMKKNTVVLTTSVPGGSRQERVDPADPSLSEPLSHNGNALLPYALRLPVDALSRGADQQGFDWAKERLRVLSAATPDAAIREYENLRRSAKQGLSDAQRYGLALAKLRNSGGRPSEPVAELSSLLEAHPDNLWLALGLSQAQARVGQREAANARFDALLKQLPNNRAVALTYASALNEQASKESGQRARQVLEPLVHRSSDDPLLQQSYARACELSGDQLRASEAYAEAAFLNGRAEQALIQLEALKKKDLDYVTRARVDARIAAITPTVLELRRQGIRDPDLSTR	failed
MYKDEMIQLHQFLVYVLKYLENGYDIKDECEEYFSLNISPHHIHRTKAEHKYAIFVLSSAISEILARKEGNNLPPNVVNGLSELARRSRKEVVKMEARLEAK	failed
MSQWTTVCKLDDILPGTGVCALVEQQQIAVFRPRNDEQVYAISNIDPFAQASVLSRGIVAEHQDDLWVASPLKKQHFRLYDGFCLEDGAYSVAAYDTQVTNGNVQISIADSDVAVDNSQPLPLEHHHHHH	not failed
MPAPRYKSGSSKKVYRKAPGNSSIVHYRRKKQSKAVCGACGALLNGVPRGRAVEITKLAKTEKRPERPFGGNLCPKCVKKMMVAKARNFLEHHHHHH	not failed
MARIDHVGLMVKDIDASIAFYQNVIGMTLKGRMTHTNGVMKLAFLGFENRDETELELIEGYNDNLPQEGKVHHFAVSTDDIEAEFDRVKGAGIKLMEDEITVLPNGFRYFFLFGPEGEMVEFFQRT	failed
MKRAYKIEINPTDDQKSKIHQTIGVSRFIYNFYIAHNKEIYEKEGKFVSGMDFSKWLNNEYIPNNQDKKWIKEVSSKATKQAIMNGDKAFKDFFKKAKGFPRFKKKKNQDVKAYFPKNNKTDWTLERHRVKIPTLGWVRLKEFGYIPKNSVVKSGTVSQKADRYYVSILVEETYIKISNPNNEGLGIDLGIKEFAICSNGNKFKNINKTSTVKKIEKKLKREQRKLSRKYESLKIRNKNIKEGRATRQNIQKQVVKVQRLHQRLANIRTDYINKTVFSIVKQKPSYITIEDLAVSNMMKNKHLSKAISSQKFFEFKTKLMSKCKQNNIELRIVDRFYPSSKTCSNCGKIKKDLKLSDRIYKCDCGFTIDRDLNASINLKNAKEYKIA	failed
MNNPSETSKPSMESGDGNTGTQTNGLDFQKQPVPVGGAISTAQAQAFLGHLHQVQLAGTSLQAAAQSLNVQSKSNEESGDSQQPSQPSQQPSVQAAIPQTQLMLAGGQITGLTLTPAQQQLLLQQAQAQAQLLAAAVQQHSASQQHSAAGATISASAATPMTQIPLSQPIQIAQDLQQLQQLQQQNLNLQQFVLVHPTTNLQPAQFIISQTPQGQQGLLQAQNLLTQLPQQSQANLLQSQPSITLTSQPATPTRTIAATPIQTLPQSQSTPKRIDTPSLEEPSDLEELEQFAKTFKQRRIKLGFTQGDVGLAMGKLYGNDFSQTTISRFEALNLSFKNMCKLKPLLEKWLNDAENLSSDSSLSSPSALNSPGIEGLSRRRKKRTSIETNIRVALEKSFLENQKPTSEEITMIADQLNMEKEVIRVWFCNRRQKEKRINPPSSGGTSSSPIKAIFPSPTSLVATTPSLVTSSAATTLTVSPVLPLTSAAVTNLSVTGTSDTTSNNTATVISTAPPASSAVTSPSLSPSPSASASTSEASSASETSTTQTTSTPLSSPLGTSQVMVTASGLQTAAAAALQGAAQLPANASLAAMAAAAGLNPSLMAPSQFAAGGALLSLNPGTLSGALSPALMSNSTLATIQALASGGSLPITSLDATGNLVFANAGGAPNIVTAPLFLNPQNLSLLTSNPVSLVSAAAASAGNSAPVASLHATSTSAESIQNSLFTVASASGAASTTTTASKAQ	failed
MGKEYVVIGLGRFGGSIVRELNALDMDVMAIDHDENRVNEYSDIATHAVVADTTDEAVMKSLGIRNFDHVIVAIGENIQSSTLTTLILKELGVKKVTAKAQNDYHAKILNKIGADTVVHPERDMGRRIAHNVASASVLDYLELADEHSIVELKATEKMAGQSIIDLDIRAQYGINIIAIKRGKEFIISPNPNINLEIGDILIMIGHDNDLNRFEKNIATR	failed
MSGQHGHDHSHAVVTQGNAKKLTIALSLTVTFLIVEVVAGFITQSLALLSDAAHMFTDAAALAIALAAIQVAKRPADDKRTFGYQRFEILAALFNASMLFMVAIYILYEAYQRFTHPPEIQSLGMLLVAVIGLIINLISMKILVSSAQDSLNVKGAYLEVLSDALGSVGVILGALVIYFTQWYWVDTLVAVLIGFWVLPRTWILLKQSINILLEGVPEEVDIEKLRDDLLALEGVESIHQLKVWAITSKNVHLTVHLFAPQADRNRLYRTAYEMLSHEHGIAEITLQIEEDECLAHSHTHIEKNHQH	failed
MNWQLKSKEAEVMNKLSLFLGCIVPNRYPGIEKATKLCLQRLEIDACDLPGASCCPAPGVFKSFDKATWLALASRNIVLSERMERDVLTVCNGCYGSLADANMELKKDPEMKACTNSCLKEIGMEFRGTSEIRHIIEFLYKEFGPEKLKEYITTPLDLKVALHYGCHLIKPSKDRNLGDTESPVFFDELVEATGAKSVDYTDKMMCCGAGGGVRSGYADESLEMLEHKLDCICKAGVDCIVNACPFCHLQFDRGQIAVNEKFGTDYSIPVLHYSQLLGLALGFSPDQLGIEQNAVQNIEFLAKIYEISAGLS	failed
MNRLLELSNEIFRIKTDDYTFPLFSSLHFKIILCVVITIFIAIIFKEKIKKWKYRRTFEVTTALILLSTQIFLAIWYSRFPNFYLKESLPLYPCRIAIIMAAIGLIWKKNDFAKSIAYFWGTIGAIGALMIPITNSYIFPHITYYTFFIGHYFLLIASLYLILIEEFKVKSKNVKQALIFSFIFAICAFIANYLFDANYAFLNPPNGYEILNIINVESNIITTSIFAYFIFVLGIFIMYLPFNMSDYKKDSLFECSLIKY	failed
MDDIRCAIIIDPDLPPGVIANTAAVLAMSLGKRHPELVGQDLPDARGQPRQGITTVPIPVLKGGADQLRALRAAASETGLTLVELTSATRFTRSYQEYAAALAATPEEMVEYQGLALCGPGKRVRQLTGSLGLLRLEHHHHHH	failed
MSPAPPRGPGMSQARSLSLILAAVLASLLPVTGSQAGEPGRALWVMSYNIRYDNPDDRPDWRTRRGPMVEQIRFFAPDILGLQEALPAMVDQLAGDLAGYAHYGVGRDDGARLGETTTIFYRAERFQRVLARTYWCSPTPDTPSKAYDAALPRTFTRLVLKDRITGVTFDVRNAHLDHVGAESRAKCAAQILALAPWPKARLITLGDFNSAPEEAPYRLLTAPEGPYRDARAAASSVFSPSTGTFNRFTPASIGPPIDYIFVDRRLNVARFAVPTDVADAGVISDHFPVLAEITLSPKTRAKAKP	failed
MIKRLTISPLFLILSLIAYYLSRNDILLYSTLSTILFWTFIILILPTSFYNYIKDGIVKYCKKKIFWFTVGLYISYHVILYSFFFYLLLPGSIKNISFWFSFNAGIGYSIPPPITYFLEWVSNSPAIWFFIGPYEGDVIPFSTFLGVVLALLIGLNVMKILELWGISNKLSKSIVLIPSLGVVSGSSCCVFLPSIVMYSIALSISSITATILSILSSFAYFILAYYALPIVSAIVLFHNLTMLNRLIKKLSFTM	failed
